Data reported in paper PMC4908374, “A humanized anti-DLL4 antibody promotes dysfunctional angiogenesis and inhibits breast tumor growth” (Scientific Reports, 2016).
Where “and” joins values, the source holds several entries; their conditions need not be identical. Identical values can stand only once. One block for each binder: values may come before it.

Target: T1, rhDLL4 (recombinant human Delta-like 4) (Homo sapiens, UniProt Q9NR61)
T1 construct: Delta-like 4 (DLL4), human, recombinant
Test: SPR; Biacore X100; HCLC or H3L2 captured (up to 2,000 RU) by anti-human IgG Fc antibody immobilised on a CM5 chip; rhDLL4 up to 100 nM flowed; 25 °C, 30 μl/min; 1:1 binding model; KD from kd/ka
Settings: both partners purified

T1 sequence (Q9NR61 27-685, stated change not applied): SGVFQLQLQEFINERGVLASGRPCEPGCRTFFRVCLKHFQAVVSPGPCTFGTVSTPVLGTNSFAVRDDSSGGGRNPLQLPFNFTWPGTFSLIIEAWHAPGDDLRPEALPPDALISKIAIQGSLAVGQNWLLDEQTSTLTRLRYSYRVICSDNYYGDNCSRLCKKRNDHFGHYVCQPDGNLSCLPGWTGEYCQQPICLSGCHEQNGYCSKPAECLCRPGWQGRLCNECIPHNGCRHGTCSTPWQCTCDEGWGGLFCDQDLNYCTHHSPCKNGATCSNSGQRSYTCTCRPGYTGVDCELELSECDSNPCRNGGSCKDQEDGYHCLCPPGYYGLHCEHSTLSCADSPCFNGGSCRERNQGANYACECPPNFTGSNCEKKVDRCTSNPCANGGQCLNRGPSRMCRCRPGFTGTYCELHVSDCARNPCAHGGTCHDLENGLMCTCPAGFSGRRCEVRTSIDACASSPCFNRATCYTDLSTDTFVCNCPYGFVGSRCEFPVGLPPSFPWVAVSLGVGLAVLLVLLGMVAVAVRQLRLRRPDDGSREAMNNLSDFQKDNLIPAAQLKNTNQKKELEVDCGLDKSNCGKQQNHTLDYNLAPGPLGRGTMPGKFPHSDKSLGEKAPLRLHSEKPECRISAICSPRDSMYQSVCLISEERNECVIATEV

- Kd: 1.14 pM and 1.41 pM
- koff: 2.42e-05 s⁻¹
- kon: 1.72e+07 M⁻¹ s⁻¹
B1: HCLC, murine-human chimeric anti-DLL4 antibody (VH and VL of MMGZ01 on human constant regions) (antibody, V domains shown)
VH: EVQLEESGTELARPGASVKLSCKASGYIFSGYWMQWIKQRPGQGLEWIGAIYPGDGDTRYTQKFKGKATLTADKSSSTAYMQLSSLASEDSAVYYCAGGNFFFDYWGLGTTLAVSS
VL: DIVITQSPALMAASPGEKVTITCSVSSSISSSYLHWYQQKSGISPKPWIYGTSNLASGVPARFSGSGSGTSYSLTITSMEAEDAATYYCQQWSSSPLTFGAGTKLELK
notes: as the VH of m6; as the VL of m6; Full-length IgG1; also called chimeric antibody; source: CHO-s, transiently transfected, in supernatant

- Kd: 2.26 pM
- koff: 2.59e-05 s⁻¹
- kon: 1.15e+07 M⁻¹ s⁻¹
B2: H3L2, humanized anti-DLL4 antibody (VH3, VL2) (antibody, V domains shown)
VH: QVQLVQSGAEVKKPGSSVKVSCKASGYTFSGYWMQWIKQAPGQGLEWIGAIYPGDGDTRYTQKFKGRATLTADKSTSTAYMELSSLRSEDTAVYYCAGGNFFFDYWGQGTLVTVSS
VL: EIVITQSPDFQSVTPKEKVTITCSVSSSISSSYLHWYQQKPDQSPKPWIYGTSNLASGVPSRFSGSGSGTDYTLTINSLEAEDAATYYCQQWSSSPLTFGQGTKLEIK
notes: Full-length IgG1; also called humanized antibody; source: CHO-s, transiently transfected, in supernatant
